According to US20240189392A1 (AMBRX, published 2024):
Where “and” joins values, the source holds several entries; their conditions need not be identical. Equal values may be shown once. Positions of bridges follow the written chain, without caps; N, C: chain ends. Non-standard residues stand in square brackets, D forms with d. Chains are numbered I, II in the order given. No end group written: not given here. PEG20K = 20 kDa polyethylene glycol, linked to pAF (e.g. via oxime linkage); Phe(4-Ac) = CC(=O)c1ccc(C[C@H](N)C(=O)O)cc1

T1: human RXFP1 (human, UniProt Q9HBX9 1-757)
T1 sequence (looked up): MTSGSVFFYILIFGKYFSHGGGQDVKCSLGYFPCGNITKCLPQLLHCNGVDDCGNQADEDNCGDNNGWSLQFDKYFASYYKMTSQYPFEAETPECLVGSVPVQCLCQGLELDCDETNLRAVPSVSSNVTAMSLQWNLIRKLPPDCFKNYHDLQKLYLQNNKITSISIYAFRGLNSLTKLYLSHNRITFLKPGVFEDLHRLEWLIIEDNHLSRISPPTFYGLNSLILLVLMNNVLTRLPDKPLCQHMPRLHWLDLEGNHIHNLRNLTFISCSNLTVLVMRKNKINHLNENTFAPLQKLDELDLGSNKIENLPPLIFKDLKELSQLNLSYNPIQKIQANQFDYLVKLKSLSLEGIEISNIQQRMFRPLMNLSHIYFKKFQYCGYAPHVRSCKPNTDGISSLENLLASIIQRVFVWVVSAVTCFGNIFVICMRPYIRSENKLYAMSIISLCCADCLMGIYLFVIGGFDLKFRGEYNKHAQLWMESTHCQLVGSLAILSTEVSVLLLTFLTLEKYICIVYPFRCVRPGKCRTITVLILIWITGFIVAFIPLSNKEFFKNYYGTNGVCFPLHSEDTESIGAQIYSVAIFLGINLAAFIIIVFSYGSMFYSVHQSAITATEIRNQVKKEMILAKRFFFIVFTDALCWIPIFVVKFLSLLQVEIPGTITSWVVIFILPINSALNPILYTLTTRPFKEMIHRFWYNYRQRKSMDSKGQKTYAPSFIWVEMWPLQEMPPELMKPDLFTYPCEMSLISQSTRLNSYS

T2: human RXFP3 (human, UniProt Q9NSD7 1-469)
T2 sequence (looked up): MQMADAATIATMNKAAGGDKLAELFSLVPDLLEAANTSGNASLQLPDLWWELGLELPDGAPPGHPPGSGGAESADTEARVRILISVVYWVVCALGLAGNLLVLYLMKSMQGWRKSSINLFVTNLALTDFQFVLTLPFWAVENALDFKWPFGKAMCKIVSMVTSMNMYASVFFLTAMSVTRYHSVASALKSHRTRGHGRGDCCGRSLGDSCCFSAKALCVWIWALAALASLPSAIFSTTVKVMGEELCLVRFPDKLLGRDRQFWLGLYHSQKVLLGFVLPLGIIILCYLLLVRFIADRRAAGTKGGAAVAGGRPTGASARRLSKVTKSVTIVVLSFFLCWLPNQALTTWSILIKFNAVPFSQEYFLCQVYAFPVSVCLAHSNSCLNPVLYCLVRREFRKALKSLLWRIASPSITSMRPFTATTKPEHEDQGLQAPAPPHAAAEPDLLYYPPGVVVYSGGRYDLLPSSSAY

T3: cynomolgus monkey RXFP1 (cynomolgus monkey, UniProt H9ERA2 1-757 (rhesus entry))
T3 sequence: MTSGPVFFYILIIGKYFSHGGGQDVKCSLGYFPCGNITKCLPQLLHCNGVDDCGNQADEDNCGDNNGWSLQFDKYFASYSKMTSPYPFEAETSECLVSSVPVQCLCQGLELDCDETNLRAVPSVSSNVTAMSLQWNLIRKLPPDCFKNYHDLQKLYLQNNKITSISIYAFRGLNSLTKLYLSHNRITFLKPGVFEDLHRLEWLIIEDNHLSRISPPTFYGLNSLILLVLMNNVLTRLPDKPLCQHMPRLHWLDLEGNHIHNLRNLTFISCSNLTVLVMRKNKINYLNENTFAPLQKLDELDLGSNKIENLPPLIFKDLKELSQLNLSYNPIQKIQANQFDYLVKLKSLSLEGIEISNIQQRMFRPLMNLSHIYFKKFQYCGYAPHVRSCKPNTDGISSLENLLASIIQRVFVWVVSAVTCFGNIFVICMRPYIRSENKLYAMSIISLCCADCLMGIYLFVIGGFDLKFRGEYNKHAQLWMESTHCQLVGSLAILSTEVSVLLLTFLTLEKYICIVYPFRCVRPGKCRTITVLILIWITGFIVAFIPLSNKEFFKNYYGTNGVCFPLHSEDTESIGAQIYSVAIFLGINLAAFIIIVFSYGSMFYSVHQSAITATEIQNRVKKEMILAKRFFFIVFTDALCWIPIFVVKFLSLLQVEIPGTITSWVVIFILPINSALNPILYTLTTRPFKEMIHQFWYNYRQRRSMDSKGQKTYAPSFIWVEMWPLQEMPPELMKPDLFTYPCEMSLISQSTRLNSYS

T4: rat RXFP1 (rat, UniProt Q6R6I6 1-758)
T4 sequence (looked up): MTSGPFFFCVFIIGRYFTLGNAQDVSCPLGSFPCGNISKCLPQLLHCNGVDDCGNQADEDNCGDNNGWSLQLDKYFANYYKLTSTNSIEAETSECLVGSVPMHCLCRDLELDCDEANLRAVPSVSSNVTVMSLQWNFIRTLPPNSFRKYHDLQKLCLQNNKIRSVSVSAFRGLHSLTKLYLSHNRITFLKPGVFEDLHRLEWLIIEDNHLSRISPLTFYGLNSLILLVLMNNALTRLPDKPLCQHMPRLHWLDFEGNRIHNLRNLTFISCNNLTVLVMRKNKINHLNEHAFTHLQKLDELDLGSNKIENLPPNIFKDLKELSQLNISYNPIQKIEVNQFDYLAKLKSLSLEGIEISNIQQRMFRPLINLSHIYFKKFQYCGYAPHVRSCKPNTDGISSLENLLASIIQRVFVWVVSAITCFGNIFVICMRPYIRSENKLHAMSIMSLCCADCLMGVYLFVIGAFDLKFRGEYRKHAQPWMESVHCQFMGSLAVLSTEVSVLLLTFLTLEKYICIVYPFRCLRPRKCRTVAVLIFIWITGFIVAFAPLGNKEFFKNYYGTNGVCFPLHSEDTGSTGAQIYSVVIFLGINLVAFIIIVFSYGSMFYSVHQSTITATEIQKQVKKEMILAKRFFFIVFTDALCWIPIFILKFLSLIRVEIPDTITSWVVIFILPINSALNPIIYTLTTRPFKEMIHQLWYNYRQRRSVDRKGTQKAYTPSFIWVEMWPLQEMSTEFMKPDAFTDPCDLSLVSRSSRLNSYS

T5: mouse RXFP1 (mouse, UniProt Q6R6I7 1-758)
T5 sequence (looked up): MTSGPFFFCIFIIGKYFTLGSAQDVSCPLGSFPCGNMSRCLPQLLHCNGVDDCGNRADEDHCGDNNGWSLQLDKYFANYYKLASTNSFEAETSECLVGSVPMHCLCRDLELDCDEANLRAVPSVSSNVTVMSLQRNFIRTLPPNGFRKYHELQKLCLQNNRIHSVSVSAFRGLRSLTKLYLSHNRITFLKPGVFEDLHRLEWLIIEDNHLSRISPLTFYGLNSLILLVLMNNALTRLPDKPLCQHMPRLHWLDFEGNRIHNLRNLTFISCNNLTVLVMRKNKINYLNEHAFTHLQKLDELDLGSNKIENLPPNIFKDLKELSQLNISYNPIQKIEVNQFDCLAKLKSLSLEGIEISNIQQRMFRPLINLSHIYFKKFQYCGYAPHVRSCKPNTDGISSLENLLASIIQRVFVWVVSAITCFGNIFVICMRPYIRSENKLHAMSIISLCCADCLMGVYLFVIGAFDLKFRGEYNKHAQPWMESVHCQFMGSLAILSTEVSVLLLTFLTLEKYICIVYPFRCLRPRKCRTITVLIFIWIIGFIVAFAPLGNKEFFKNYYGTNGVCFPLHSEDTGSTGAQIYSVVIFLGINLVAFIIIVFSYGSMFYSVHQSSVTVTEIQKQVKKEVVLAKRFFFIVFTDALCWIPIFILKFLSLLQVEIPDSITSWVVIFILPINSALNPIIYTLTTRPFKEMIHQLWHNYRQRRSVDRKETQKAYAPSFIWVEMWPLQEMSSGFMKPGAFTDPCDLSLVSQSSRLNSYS

B1: RLX-A-BE5-20KPEG (ligand)
chain 1: QLYSALANKCCHVGCTKRSLARFC
chain 2: ASWM[Phe(4-Ac)](PEG20K)EVIKLCGRELVRAQIAICGMSTWS
modifications: not fully specified (bridges); ends and bridges not checked
B2: RLX-A-BA18-20KPEG (ligand)
chain 1: QLYSALANKCCHVGCTKRSLARFC
chain 2: ASWMEEVIKLCGRELVR[Phe(4-Ac)](PEG20K)QIAICGMSTWS
modifications: not fully specified (bridges); ends and bridges not checked
B3: RLX-D-BE5-20KPEG (ligand)
chain 1: QLYSALANKCCHVGCTKRSLARFC
chain 2: DSWM[Phe(4-Ac)](PEG20K)EVIKLCGRELVRAQIAICGMSTWS
modifications: not fully specified (bridges); ends and bridges not checked
B4: RLX-A-WT (human relaxin 2 with alanine at the first position of the B chain) (ligand)
chain 1: QLYSALANKCCHVGCTKRSLARFC
chain 2: ASWMEEVIKLCGRELVRAQIAICGMSTWS
modifications: not fully specified (bridges); ends and bridges not checked
B5: RLX-A-AV13-20KPEG (ligand)
chain 1: QLYSALANKCCHXGCTKRSLARFC
chain 2: ASWMEEVIKLCGRELVRAQIAICGMSTWS
modifications: not fully specified; para-acetylphenylalanine (pAF) at position 13 of the A chain, 20K PEGylated
B6: RLX-A-AA5-20KPEG (ligand)
chain 1: QLYSXLANKCCHVGCTKRSLARFC
chain 2: ASWMEEVIKLCGRELVRAQIAICGMSTWS
modifications: not fully specified; para-acetylphenylalanine (pAF) at position 5 of the A chain, 20K PEGylated
B7: RLX-A-BW28-20KPEG (ligand)
chain 1: QLYSALANKCCHVGCTKRSLARFC
chain 2: ASWMEEVIKLCGRELVRAQIAICGMST[Phe(4-Ac)](PEG20K)S
modifications: not fully specified (bridges); ends and bridges not checked
B8: RLX-D-AL2-20KPEG (ligand)
chain 1: QXYSALANKCCHVGCTKRSLARFC
chain 2: DSWMEEVIKLCGRELVRAQIAICGMSTWS
modifications: not fully specified; para-acetylphenylalanine (pAF) at position 2 of the A chain, 20K PEGylated
B9: RLX-A-BV7-20KPEG (ligand)
chain 1: QLYSALANKCCHVGCTKRSLARFC
chain 2: ASWMEE[Phe(4-Ac)](PEG20K)IKLCGRELVRAQIAICGMSTWS
modifications: not fully specified (bridges); ends and bridges not checked
B10: RLX-A-AR18-20KPEG (ligand)
chain 1: QLYSALANKCCHVGCTKXSLARFC
chain 2: ASWMEEVIKLCGRELVRAQIAICGMSTWS
modifications: not fully specified; para-acetylphenylalanine (pAF) at position 18 of the A chain, 20K PEGylated
B11: wild-type relaxin (human relaxin 2) (ligand)
chain 1: QLYSALANKCCHVGCTKRSLARFC
chain 2: DSWMEEVIKLCGRELVRAQIAICGMSTWS
modifications: disulfide I:10-I:15, I:11-II:11, I:24-II:23

Columns and labels:
Assay in all cases: cell-based or functional assay
human RXFP1 [1] = molecular target: T1, human RXFP1
human RXFP1 [2] = molecular target: T1, human RXFP1; remark: listed apart in the source
human RXFP1 [3] = molecular target: T1, human RXFP1; remark: listed apart in the source
human RXFP3 = molecular target: T2, human RXFP3
human RXFP4 = human RXFP4 (human, UniProt Q8TDU9 1-374)
human RXFP4, sequence (Q8TDU9 whole entry): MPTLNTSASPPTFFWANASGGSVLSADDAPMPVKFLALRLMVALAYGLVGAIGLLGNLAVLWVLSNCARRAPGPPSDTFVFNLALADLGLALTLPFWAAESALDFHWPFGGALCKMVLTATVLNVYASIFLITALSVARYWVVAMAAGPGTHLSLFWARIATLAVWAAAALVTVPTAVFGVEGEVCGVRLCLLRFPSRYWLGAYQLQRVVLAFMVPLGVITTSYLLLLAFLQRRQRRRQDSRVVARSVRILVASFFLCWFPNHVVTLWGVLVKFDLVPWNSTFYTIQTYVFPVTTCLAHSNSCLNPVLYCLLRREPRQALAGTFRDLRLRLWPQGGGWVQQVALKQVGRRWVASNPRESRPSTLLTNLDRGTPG

cynomolgus monkey RXFP1 = molecular target: T3, cynomolgus monkey RXFP1
dog RXFP1 = dog RXFP1 (dog)
rat RXFP1 = molecular target: T4, rat RXFP1
mouse RXFP1 = molecular target: T5, mouse RXFP1

Binder | In vitro Activity Fold Loss (human RXFP1 [1]) | Functional Assay Raw EC50 Values [ng/mL]; cAMP increase in THP-1 cells, 11/5/2010 (human RXFP1 [2]) | Functional Assay Raw EC50 Values [ng/mL]; cAMP increase in THP-1 cells, 11/4/2010 (human RXFP1 [2]) | further results
B1 | 17 fold | 45 ng/mL |  | 
B2 | 48 fold |  | 172 ng/mL | 
B3 | 22 fold | 58 ng/mL |  | 
B4 |  | 3.3 ng/mL and 2.6 ng/mL | 3.6 ng/mL | 
B5 | 17 fold | 56 ng/mL |  | 
B6 | 12 fold | 41 ng/mL |  | 
B7 | 48 fold |  | 172 ng/mL | 
B8 | 17 fold | 43 ng/mL |  | 
B9 | 15 fold |  | 54 ng/mL | 
B10 | 21 fold | 68 ng/mL |  | 
B11 |  | 1.5 ng/mL and 1 ng/mL | 1.5 ng/mL | cAMP Assay EC50 (nM), THP-1 cells (human RXFP1 [3]): 0.3 nM; cAMP Assay EC50 (nM), hRXFP1/CHO-K1 cells (human RXFP1 [3]): 0.1 nM; cAMP Assay EC50 (nM), inhibition of forskolin-induced cAMP, human RXFP3/CHO-K1 cells (human RXFP3): > 3000 nM; cAMP Assay EC50 (nM), inhibition of forskolin-induced cAMP, human RXFP4/CHO-K1 cells (human RXFP4): > 3000 nM; cAMP Assay EC50 (nM), cyno RXFP1/CHO-K1 cells (cynomolgus monkey RXFP1): 0.06 nM; cAMP Assay EC50 (nM), dog RXFP1/CHO-K1 cells (dog RXFP1): 0.56 nM; cAMP Assay EC50 (nM), rat RXFP1/CHO-K1 cells (rat RXFP1): 0.03 nM; cAMP Assay EC50 (nM), mouse RXFP1/CHO-K1 cells (mouse RXFP1): 0.1 nM
